Source: patent US20220017612A1

Target: biotinylated human LAP-TGFβ1 (Example 14) (human) (UniProt P01137)
Assay: BLI, antigen on tip, CHO supernatant; ratio to wild type

biotinylated human LAP-TGFβ1 (Example 14) (human), sequence (P01137 30-390 limits assumed): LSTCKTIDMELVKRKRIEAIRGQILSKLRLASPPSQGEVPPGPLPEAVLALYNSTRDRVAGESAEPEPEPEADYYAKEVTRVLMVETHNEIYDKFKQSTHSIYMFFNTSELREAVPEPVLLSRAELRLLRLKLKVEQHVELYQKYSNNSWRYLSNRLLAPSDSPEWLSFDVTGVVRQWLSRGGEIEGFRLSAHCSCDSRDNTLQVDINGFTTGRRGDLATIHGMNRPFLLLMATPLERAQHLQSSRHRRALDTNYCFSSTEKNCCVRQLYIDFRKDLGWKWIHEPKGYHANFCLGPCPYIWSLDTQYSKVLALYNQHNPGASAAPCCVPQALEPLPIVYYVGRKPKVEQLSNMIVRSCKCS

B1: 20E6_H0.2aL1_hIgG1 VH_R50A (antibody, V domains shown)
VH: EVQLVQSGAEVKKPGASVKVSCKASGYTFTSYWMHWVRQAPGQGLEWMGAIDPQSGGIKYAQKFQGRATLTVDTSTSTAYMELSRLRSDDTAVYYCARWDYGGYFDVWGQGTLVTVSS
VL: DIQMTQSPSSLSASVGDRVTITCRASQDITNYLNWYQQKPGKAVKLLIYYTSRLHSGVPSRFSGSGSGTDYTLTISSLQPEDFATYFCQQGDTLPWTFGQGTKLEIKR
  KD,WT/KD,Ala: 0

B2: 20E6_H0.2aL1_hIgG1 VL_W96A (antibody, V domains shown)
VH: EVQLVQSGAEVKKPGASVKVSCKASGYTFTSYWMHWVRQAPGQGLEWMGRIDPQSGGIKYAQKFQGRATLTVDTSTSTAYMELSRLRSDDTAVYYCARWDYGGYFDVWGQGTLVTVSS
VL: DIQMTQSPSSLSASVGDRVTITCRASQDITNYLNWYQQKPGKAVKLLIYYTSRLHSGVPSRFSGSGSGTDYTLTISSLQPEDFATYFCQQGDTLPATFGQGTKLEIKR
  KD,WT/KD,Ala: 0

B3: 20E6_H0.2aL1_hIgG1 VL_Q27A (antibody, V domains shown)
VH: EVQLVQSGAEVKKPGASVKVSCKASGYTFTSYWMHWVRQAPGQGLEWMGRIDPQSGGIKYAQKFQGRATLTVDTSTSTAYMELSRLRSDDTAVYYCARWDYGGYFDVWGQGTLVTVSS
VL: DIQMTQSPSSLSASVGDRVTITCRASADITNYLNWYQQKPGKAVKLLIYYTSRLHSGVPSRFSGSGSGTDYTLTISSLQPEDFATYFCQQGDTLPWTFGQGTKLEIKR
  KD,WT/KD,Ala: 0.03

B4: 20E6_H0.2aL1_hIgG1 VH_W99A (antibody, V domains shown)
VH: EVQLVQSGAEVKKPGASVKVSCKASGYTFTSYWMHWVRQAPGQGLEWMGRIDPQSGGIKYAQKFQGRATLTVDTSTSTAYMELSRLRSDDTAVYYCARADYGGYFDVWGQGTLVTVSS
VL: DIQMTQSPSSLSASVGDRVTITCRASQDITNYLNWYQQKPGKAVKLLIYYTSRLHSGVPSRFSGSGSGTDYTLTISSLQPEDFATYFCQQGDTLPWTFGQGTKLEIKR
  KD,WT/KD,Ala: 0

B5: 20E6_H0.2aL1_hIgG1 VH_Y104A (antibody, V domains shown)
VH: EVQLVQSGAEVKKPGASVKVSCKASGYTFTSYWMHWVRQAPGQGLEWMGRIDPQSGGIKYAQKFQGRATLTVDTSTSTAYMELSRLRSDDTAVYYCARWDYGGAFDVWGQGTLVTVSS
VL: DIQMTQSPSSLSASVGDRVTITCRASQDITNYLNWYQQKPGKAVKLLIYYTSRLHSGVPSRFSGSGSGTDYTLTISSLQPEDFATYFCQQGDTLPWTFGQGTKLEIKR
  KD,WT/KD,Ala: 0

B6: 20E6_H0.2aL1_hIgG1 VH_G103A (antibody, V domains shown)
VH: EVQLVQSGAEVKKPGASVKVSCKASGYTFTSYWMHWVRQAPGQGLEWMGRIDPQSGGIKYAQKFQGRATLTVDTSTSTAYMELSRLRSDDTAVYYCARWDYGAYFDVWGQGTLVTVSS
VL: DIQMTQSPSSLSASVGDRVTITCRASQDITNYLNWYQQKPGKAVKLLIYYTSRLHSGVPSRFSGSGSGTDYTLTISSLQPEDFATYFCQQGDTLPWTFGQGTKLEIKR
  KD,WT/KD,Ala: 0

B7: 20E6_H0.2aL1_hIgG1 VH_G102A (antibody, V domains shown)
VH: EVQLVQSGAEVKKPGASVKVSCKASGYTFTSYWMHWVRQAPGQGLEWMGRIDPQSGGIKYAQKFQGRATLTVDTSTSTAYMELSRLRSDDTAVYYCARWDYAGYFDVWGQGTLVTVSS
VL: DIQMTQSPSSLSASVGDRVTITCRASQDITNYLNWYQQKPGKAVKLLIYYTSRLHSGVPSRFSGSGSGTDYTLTISSLQPEDFATYFCQQGDTLPWTFGQGTKLEIKR
  KD,WT/KD,Ala: 0

B8: 20E6_H0.2aL1_hIgG1 VL_T97A (antibody, V domains shown)
VH: EVQLVQSGAEVKKPGASVKVSCKASGYTFTSYWMHWVRQAPGQGLEWMGRIDPQSGGIKYAQKFQGRATLTVDTSTSTAYMELSRLRSDDTAVYYCARWDYGGYFDVWGQGTLVTVSS
VL: DIQMTQSPSSLSASVGDRVTITCRASQDITNYLNWYQQKPGKAVKLLIYYTSRLHSGVPSRFSGSGSGTDYTLTISSLQPEDFATYFCQQGDTLPWAFGQGTKLEIKR
  KD,WT/KD,Ala: 0.01

B9: 20E6_H0.2aL1_hIgG1 VH_F105A (antibody, V domains shown)
VH: EVQLVQSGAEVKKPGASVKVSCKASGYTFTSYWMHWVRQAPGQGLEWMGRIDPQSGGIKYAQKFQGRATLTVDTSTSTAYMELSRLRSDDTAVYYCARWDYGGYADVWGQGTLVTVSS
VL: DIQMTQSPSSLSASVGDRVTITCRASQDITNYLNWYQQKPGKAVKLLIYYTSRLHSGVPSRFSGSGSGTDYTLTISSLQPEDFATYFCQQGDTLPWTFGQGTKLEIKR
  KD,WT/KD,Ala: 0

B10: 20E6_H0.2aL1_hIgG1 VH_Y101A (antibody, V domains shown)
VH: EVQLVQSGAEVKKPGASVKVSCKASGYTFTSYWMHWVRQAPGQGLEWMGRIDPQSGGIKYAQKFQGRATLTVDTSTSTAYMELSRLRSDDTAVYYCARWDAGGYFDVWGQGTLVTVSS
VL: DIQMTQSPSSLSASVGDRVTITCRASQDITNYLNWYQQKPGKAVKLLIYYTSRLHSGVPSRFSGSGSGTDYTLTISSLQPEDFATYFCQQGDTLPWTFGQGTKLEIKR
  KD,WT/KD,Ala: 0

B11: 20E6_H0.2aL1_hIgG1 VL_Y50A (antibody, V domains shown)
VH: EVQLVQSGAEVKKPGASVKVSCKASGYTFTSYWMHWVRQAPGQGLEWMGRIDPQSGGIKYAQKFQGRATLTVDTSTSTAYMELSRLRSDDTAVYYCARWDYGGYFDVWGQGTLVTVSS
VL: DIQMTQSPSSLSASVGDRVTITCRASQDITNYLNWYQQKPGKAVKLLIYATSRLHSGVPSRFSGSGSGTDYTLTISSLQPEDFATYFCQQGDTLPWTFGQGTKLEIKR
  KD,WT/KD,Ala: 0

B12: 20E6_H0.2aL1_hIgG1 VL_L33A (antibody, V domains shown)
VH: EVQLVQSGAEVKKPGASVKVSCKASGYTFTSYWMHWVRQAPGQGLEWMGRIDPQSGGIKYAQKFQGRATLTVDTSTSTAYMELSRLRSDDTAVYYCARWDYGGYFDVWGQGTLVTVSS
VL: DIQMTQSPSSLSASVGDRVTITCRASQDITNYANWYQQKPGKAVKLLIYYTSRLHSGVPSRFSGSGSGTDYTLTISSLQPEDFATYFCQQGDTLPWTFGQGTKLEIKR
  KD,WT/KD,Ala: 0.08

B13: 20E6_H0.2aL1_hIgG1 VL_Q90A (antibody, V domains shown)
VH: EVQLVQSGAEVKKPGASVKVSCKASGYTFTSYWMHWVRQAPGQGLEWMGRIDPQSGGIKYAQKFQGRATLTVDTSTSTAYMELSRLRSDDTAVYYCARWDYGGYFDVWGQGTLVTVSS
VL: DIQMTQSPSSLSASVGDRVTITCRASQDITNYLNWYQQKPGKAVKLLIYYTSRLHSGVPSRFSGSGSGTDYTLTISSLQPEDFATYFCQAGDTLPWTFGQGTKLEIKR
  KD,WT/KD,Ala: 0

B14: 20E6_H0.2aL1_hIgG1 VL_N34A (antibody, V domains shown)
VH: EVQLVQSGAEVKKPGASVKVSCKASGYTFTSYWMHWVRQAPGQGLEWMGRIDPQSGGIKYAQKFQGRATLTVDTSTSTAYMELSRLRSDDTAVYYCARWDYGGYFDVWGQGTLVTVSS
VL: DIQMTQSPSSLSASVGDRVTITCRASQDITNYLAWYQQKPGKAVKLLIYYTSRLHSGVPSRFSGSGSGTDYTLTISSLQPEDFATYFCQQGDTLPWTFGQGTKLEIKR
  KD,WT/KD,Ala: 0.07

B15: 20E6_H0.2aL1_hIgG1 VL_G91A (antibody, V domains shown)
VH: EVQLVQSGAEVKKPGASVKVSCKASGYTFTSYWMHWVRQAPGQGLEWMGRIDPQSGGIKYAQKFQGRATLTVDTSTSTAYMELSRLRSDDTAVYYCARWDYGGYFDVWGQGTLVTVSS
VL: DIQMTQSPSSLSASVGDRVTITCRASQDITNYLNWYQQKPGKAVKLLIYYTSRLHSGVPSRFSGSGSGTDYTLTISSLQPEDFATYFCQQADTLPWTFGQGTKLEIKR
  KD,WT/KD,Ala: 0

B16: 20E6_H0.2aL1_hIgG1 VL_A25G (antibody, V domains shown)
VH: EVQLVQSGAEVKKPGASVKVSCKASGYTFTSYWMHWVRQAPGQGLEWMGRIDPQSGGIKYAQKFQGRATLTVDTSTSTAYMELSRLRSDDTAVYYCARWDYGGYFDVWGQGTLVTVSS
VL: DIQMTQSPSSLSASVGDRVTITCRGSQDITNYLNWYQQKPGKAVKLLIYYTSRLHSGVPSRFSGSGSGTDYTLTISSLQPEDFATYFCQQGDTLPWTFGQGTKLEIKR
  KD,WT/KD,Ala: 0.09

B17: 20E6_H0.2aL1_hIgG1 VL_D28A (antibody, V domains shown)
VH: EVQLVQSGAEVKKPGASVKVSCKASGYTFTSYWMHWVRQAPGQGLEWMGRIDPQSGGIKYAQKFQGRATLTVDTSTSTAYMELSRLRSDDTAVYYCARWDYGGYFDVWGQGTLVTVSS
VL: DIQMTQSPSSLSASVGDRVTITCRASQAITNYLNWYQQKPGKAVKLLIYYTSRLHSGVPSRFSGSGSGTDYTLTISSLQPEDFATYFCQQGDTLPWTFGQGTKLEIKR
  KD,WT/KD,Ala: 0

B18: 20E6_H0.2aL1_hIgG1 VL_L94A (antibody, V domains shown)
VH: EVQLVQSGAEVKKPGASVKVSCKASGYTFTSYWMHWVRQAPGQGLEWMGRIDPQSGGIKYAQKFQGRATLTVDTSTSTAYMELSRLRSDDTAVYYCARWDYGGYFDVWGQGTLVTVSS
VL: DIQMTQSPSSLSASVGDRVTITCRASQDITNYLNWYQQKPGKAVKLLIYYTSRLHSGVPSRFSGSGSGTDYTLTISSLQPEDFATYFCQQGDTAPWTFGQGTKLEIKR
  KD,WT/KD,Ala: 0

B19: 20E6_H0.2aL1_hIgG1 VL_P95A (antibody, V domains shown)
VH: EVQLVQSGAEVKKPGASVKVSCKASGYTFTSYWMHWVRQAPGQGLEWMGRIDPQSGGIKYAQKFQGRATLTVDTSTSTAYMELSRLRSDDTAVYYCARWDYGGYFDVWGQGTLVTVSS
VL: DIQMTQSPSSLSASVGDRVTITCRASQDITNYLNWYQQKPGKAVKLLIYYTSRLHSGVPSRFSGSGSGTDYTLTISSLQPEDFATYFCQQGDTLAWTFGQGTKLEIKR
  KD,WT/KD,Ala: 0

B20: 20E6_H0.2aL1_hIgG1 VL_Y32A (antibody, V domains shown)
VH: EVQLVQSGAEVKKPGASVKVSCKASGYTFTSYWMHWVRQAPGQGLEWMGRIDPQSGGIKYAQKFQGRATLTVDTSTSTAYMELSRLRSDDTAVYYCARWDYGGYFDVWGQGTLVTVSS
VL: DIQMTQSPSSLSASVGDRVTITCRASQDITNALNWYQQKPGKAVKLLIYYTSRLHSGVPSRFSGSGSGTDYTLTISSLQPEDFATYFCQQGDTLPWTFGQGTKLEIKR
  KD,WT/KD,Ala: 0

B21: 20E6_H0.2aL1_hIgG1 VL_D92A (antibody, V domains shown)
VH: EVQLVQSGAEVKKPGASVKVSCKASGYTFTSYWMHWVRQAPGQGLEWMGRIDPQSGGIKYAQKFQGRATLTVDTSTSTAYMELSRLRSDDTAVYYCARWDYGGYFDVWGQGTLVTVSS
VL: DIQMTQSPSSLSASVGDRVTITCRASQDITNYLNWYQQKPGKAVKLLIYYTSRLHSGVPSRFSGSGSGTDYTLTISSLQPEDFATYFCQQGATLPWTFGQGTKLEIKR
  KD,WT/KD,Ala: 0
